Laboratory results taken from patent US10513713B2, “Modified host cells having tolerance to α-olefins” (priority 2014, dated 2019).

Columns and labels:
E. coli K12 ΔacrAB [1] = experiment: Growth in liquid culture with 1-hexene, styrene or bile salts, strains producing AcrAB or AcrB variants; assay type: cell-based; settings: bile salts, FIG. 5C
Procedure: (§1) FIG. 2: impact of AcrAB production on growth, in presence of styrene 1-hexene, 1-octene and 1-nonene on cell growth. A: Different concentrations of styrene were added to an OD600=0.2 culture of E. coli K12 ΔacrAB containing the pABc (white) or the control plasmid p0c (black). OD density was monitored after 2 hours of growth at 37° C. The bars represent standard deviation between duplicates. B: A survival test in presence of 1-hexene, 1-octene, or 1-nonene saturated atmosphere was performed. Six different dilutions of cultures (10 cells to 10^7 cells, left to right on the figure) were spotted in triplicate on an agar plates. Plates were then exposed to the aforementioned chemicals.
FIG. 5: Impact of beneficial AcrB mutations on growth, in presence of 1-hexene and styrene. Different concentrations of 1-hexene (A), styrene (B), or bile salts (C) were added to an OD600=0.2 culture of E. Coli K12 ΔacrAB containing either the AcrB wild type (pABc) or the AcrB variants. OD densities were monitored after 2 hours of culture at 37° C. The bars represent standard deviation between duplicates.
Cells were first inoculated in 6 mL LB-Cm with glucose (2 g/L) and arabinose (5 mM). […] After 2 hours at 37° C., OD600 was measured. […]

E. coli K12 ΔacrAB [2] = experiment: Survival assay on agar plate in olefin saturated atmosphere, strains producing AcrAB or AcrB variants; assay type: cell-based; settings: 1-hexene saturated atmosphere
Procedure: as §1
FIG. 4: Impact of beneficial mutations on AcrB on tolerance to 1-hexene, A: Survival test of E. coli strain producing either the AcrB wild type or variants in a 1-hexene saturated atmosphere was performed. Two dilutions of cultures (Dilution 1: 10^5 cells and Dilution 2: 10^4 cells) were spotted in triplicate on an agar plate. B: Localization of the 6 beneficial mutations represented on the structure of a single monomer of AcrB or C: on the structure of the AcrB trimer.
FIG. 6: Impact of beneficial mutations on AcrB on tolerance to 1-hexene. A: Survival test of E. coli strain producing either the AcrB Wild type or variants with 1, 2 or several beneficial mutations, in an 1-hexene saturated atmosphere was performed. Two dilutions of cultures (Dilution 2: 10^4 cells and Dilution 3: 10^3 cells) were spotted in triplicate on an agar plate. B: Soluble fraction of total proteins from a culture of strains producing either the wild type, either the variant F617L, either the variant 6 (A279T, Q584R, F617L) were analyzed by western blot using anti-His antibody.
For agar plate based assays, cells were first streaked overnight and few colonies were used to inoculate a preculture of 6 mL of LB-Cm with glucose (2 g/L) and arabinose (5 mM). At OD60=1 at 37° C., the cultures were used to prepare a dilution series. Dilution 0 (D0) corresponds to the OD600, =1, and contains ˜10^9 cells/mL. Dilution 1 (D1) is a 10-fold dilution of D0, dilution 2 (D2) a 10-fold dilution of D1 up to dilution 5 (D5), which contains ˜10^4 cells/mL. 10 μL of each dilution was spotted in triplicate on LB-agar plates (single well plates, Thermo Scientific, Waltham, Mass.) containing 30 mL of LB-agar, Cm (30 mg/L), glucose (2 g/L) and arabinose (5 mM). Small containers (microfuge tube lids) were placed on the open lid of the agar plate and filled with 400 to 600 μL of 1-hexene or 1-octene or with 75 μL of 1-nonene. The agar plates were then inverted over the lid, cells facing the olefin compound, sealed with parafilm, placed in the plastic bag (the original packaging for the petri dishes) and incubated for 2 days at room temperature. For 1-octene, a second condition, via overlaying 2 mL of compound on the top of the agar submerging the cells, was used. TolC overexpression impact was examined using the same method, but in this case, the LB media and the LB-agar were also supplemented with ampicillin (100 mg/L) and IPTG (100 μM). […]

B1: Q584R: E. coli AcrB (SEQ ID NO:1) variant with amino acid mutation Q584R (protein)
chain: MPNFFIDRPIFAWVIAIIIMLAGGLAILKLPVAQYPTIAPPAVTISASYPGADAKTVQDTVTQVIEQNMNGIDNLMYMSSNSDSTGTVQITLTFESGTDADIAQVQVQNKLQLAMPLLPQEVQQQGVSVEKSSSSFLMVVGVINTDGTMTQEDISDYVAANMKDAISRTSGVGDVQLFGSQYAMRIWMNPNELNKFQLTPVDVITAIKAQNAQVAAGQLGGTPPVKGQQLNASIIAQTRLTSTEEFGKILLKVNQDGSRVLLRDVAKIELGGENYDIIAEFNGQPASGLGIKLATGANALDTAAAIRAELAKMEPFFPSGLKIVYPYDTTPFVKISIHEVVKTLVEAIILVFLVMYLFLQNFRATLIPTIAVPVVLLGTFAVLAAFGFSINTLTMFGMVLAIGLLVDDAIVVVENVERVMAEEGLPPKEATRKSMGQIQGALVGIAMVLSAVFVPMAFFGGSTGAIYRQFSITIVSAMALSVLVALILTPALCATMLKPIAKGDHGEGKKGFFGWFNRMFEKSTHHYTDSVGGILRSTGRYLVLYLIIVVGMAYLFVRLPSSFLPDEDQGVFMTMVQLPAGATRERTQKVLNEVTHYYLTKEKNNVESVFAVNGFGFAGRGQNTGIAFVSLKDWADRPGEENKVEAITMRATRAFSQIKDAMVFAFNLPAIVELGTATGFDFELIDQAGLGHEKLTQARNQLLAEAAKHPDMLTSVRPNGLEDTPQFKIDIDQEKAQALGVSINDINTTLGAAWGGSYVNDFIDRGRVKKVYVMSEAKYRMLPDDIGDWYVRAADGQMVPFSAFSSSRWEYGSPRLERYNGLPSMEILGQAAPGKSTGEAMELMEQLASKLPTGVGYDWTGMSYQERLSGNQAPSLYAISLIVVFLCLAALYESWSIPFSVMLVVPLGVIGALLAATFRGLTNDVYFQVGLLTTIGLSAKNAILIVEFAKDLMDKEGKGLIEATLDAVRMRLRPILMTSLAFILGVMPLVISTGAGSGAQNAVGTGVMGGMVTATVLAIFFVPVFFVVVRRRFSRKNEDIEHSHTVDHH
modifications: E. coli
E. coli K12 ΔacrAB [1]
  growth of the strain in presence of bile salts: improved the growth
E. coli K12 ΔacrAB [2]
  efficiency among the beneficial mutations: more efficient
E. coli K12 ΔacrAB [2]; single mutation AcrB variants, FIG. 4A
  tolerance to 1-hexene relative to wild type AcrB sequence: improvement in tolerance
